Two proteins from paper PMC10575590, “Molecular basis of ClC-6 function and its impairment in human disease” (Science Advances, 2023) can be followed below.

Positions count from the first letter of the chain named. Numbers in names are those of the source.

The term stoichiometry N denotes a count of units in the complex or per binding partner.

The data set deals with the molecule itself. The data set is described as follows: cryo-EM structure; purified ClC-6 in 150 mM NaCl, 0.1% digitonin, 20 mM Hepes pH 7.4; apo, with 2 mM ATP and 2 mM MgCl2, and the Y553C mutant; C2 symmetry imposed.

B1: human ClC-6 (natural protein)
chain: MAGCRGSLCCCCRWCCCCGERETRTPEELTILGETQEEEDEILPRKDYESLDYDRCINDPYLEVLETMDNKKGRRYEAVKWMVVFAIGVCTGLVGLFVDFFVRLFTQLKFGVVQTSVEECSQKGCLALSLLELLGFNLTFVFLASLLVLIEPVAAGSGIPEVKCYLNGVKVPGIVRLRTLLCKVLGVLFSVAGGLFVEKEGPMIHSGSVVGAGLPQFQSISLRKIQFNFPYFRSDRDKRDFVSAGAAAGVAAAFGAPIGGTLFSLEEGSSFWNQGLTWKVLFCSMSATFTLNFFRSGIQFGSWGSFQLPGLLNFGEFKCSDSDKKCHLWTAMDLGFFVVMGVIGGLLGATFNCLNKRLAKYRMRNVHPKPKLVRVLESLLVSLVTTVVVFVASMVLGECRQMSSSSQIGNDSFQLQVTEDVNSSIKTFFCPNDTYNDMATLFFNPQESAILQLFHQDGTFSPVTLALFFVLYFLLACWTYGISVPSGLFVPSLLCGAAFGRLVANVLKSYIGLGHIYSGTFALIGAAAFLGGVVRMTISLTVILIESTNEITYGLPIMVTLMVAKWTGDFFNKGIYDIHVGLRGVPLLEWETEVEMDKLRASDIMEPNLTYVYPHTRIQSLVSILRTTVHHAFPVVTENRGNEKEFMKGNQLISNNIKFKKSSILTRAGEQRKRSQSMKSYPSSELRNMCDEHIASEEPAEKEDLLQQMLERRYTPYPNLYPDQSPSEDWTMEERFRPLTFHGLILRSQLVTLLVRGVCYSESQSSASQPRLSYAEMAEDYPRYPDIHDLDLTLLNPRMIVDVTPYMNPSPFTVSPNTHVSQVFNLFRTMGLRHLPVVNAVGEIVGIITRHNLTYEFLQARLRQHYQTI
notes: ClC-6 (chloride-proton exchanger), human; cDNA in the pEG BacMam vector; residues up to H851 are seen in the structure, so the whole protein is likely; also called WT ClC-6; apo-ClC-6; source: HEK293F cells, BacMam virus, purified (Strep-Tactin Sepharose, size exclusion chromatography) in digitonin
On to B1, for which the “stoichiometry N” value amounted to 2.

B2: ClC-6 mutant (Y553C) (natural protein, human)
chain: B1 chain with Y553C
notes: ClC-6, human, with the disease-causing patient variant p.Y553C; made as apo-ClC-6; Variant found in patients (heterozygous p.Y553C), so the origin is written as natural; also called Y553C mutant; p.Y553C; source: HEK293F cells, BacMam virus, purified (Strep-Tactin Sepharose, size exclusion chromatography) in digitonin
Take B2: the binding result is given as “binds”.
